Source: patent publication US20020164791A1

Molecular target: endogenous BMP released from the ES cells (BMP4) (mouse) (UniProt P21275)
Assay: cell-based or functional assay

Sequence of UniProt P21275 (P21275 293-408 limits assumed): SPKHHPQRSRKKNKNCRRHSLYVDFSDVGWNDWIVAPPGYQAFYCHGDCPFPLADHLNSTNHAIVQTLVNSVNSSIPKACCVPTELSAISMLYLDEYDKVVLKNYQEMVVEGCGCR

numbers of primary neural stem cell colonies generated (ES cells in LIF, 20% v/v mCer-1 supernatant): 50 % increase
Substance: mouse Cerberus-like (mCer-1) protein (from UniProt O55233 18-272) (ligand)
